Test system: MS2 coat protein
Assay: apparent KD of MS2 coat protein; designed switch direction (-1 OFF switch, 1 ON switch): -1; higher = weaker reporter binding
In short: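 Each step of the titration lasted 0.8–1.5 h at the lowest concentration and 10–20 min at the highest. The protein, SNAP-549-labelled MS2 coat protein, went from 0.7 or 1.5 nM doubling to 3 µM over RNA switches transcribed on Illumina chips by stalled E. coli RNA polymerase. Normalised cluster fluorescence was curve-fitted, and the per-design median over clusters is given as apparent KD.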

[1] = Eterna round: R95, input ligand: microRNA oligo, concentration not stated
[2] = Eterna round: R95, input ligand: FMN 200 uM
[3] = Eterna round: R95, input ligand: none
[4] = input ligand: microRNA oligo, concentration not stated

Sequence: ACCUCACAUGAGGAUCACCCAUGUCAGGAUAUCUAUUAUUGCAGCAUUCCUGUCGCUGAGAGAAGGGACAUUAA [EX1 #28] (Eterna round: R97, puzzle: Exclusion 1)
- apparent KD of MS2 coat protein (input ligand: FMN 200 uM): 0.0294 µM
- apparent KD of MS2 coat protein (input ligand: none): 0.0237 µM

Sequence: UCUUAUUGAGGAUAUACAUUAAAAUACAUGAGGAUCACCCAUGUUCUUCAAUGUAUAUAUGUAGAAGGCAGAAUAU [Mat - Exclusion 5 - JL Mod - D27] (Eterna round: R97, puzzle: Exclusion 5)
- apparent KD of MS2 coat protein (input ligand: FMN 200 uM): 0.0612 µM
- apparent KD of MS2 coat protein (input ligand: none): 0.0288 µM

Sequence: AAUAACAGAGGAUAUACUGUUUUAUGUGUUUGUUAUUUUGAACAUGAGGAUCACCCAUGUAGAAGGCUGAGUAA [JMF 37] (puzzle: Exclusion 2)
- apparent KD of MS2 coat protein [1]: 0.0236 µM

Sequence: AUAAUGUCAGGAUAUCGAACUUACUACUUCGGUAGUAAGUUCGAGAAGGGACAUGAGGAUCACCCAUGUGAUCA [E4/1-A4] (Eterna round: R97, puzzle: Exclusion 4)
- apparent KD of MS2 coat protein (input ligand: FMN 200 uM): 0.0418 µM
- apparent KD of MS2 coat protein (input ligand: none): 0.109 µM

Sequence: CAGUACCUAGGAUAUACACGGCCACGUGAUACCAAGGAGCAACUUGAGGAUCACCCAAGUAGAAGGAGGUACUG [jl-ex2.4.42 ViennaUCT mod] (Eterna round: R97, puzzle: Exclusion 2)
- apparent KD of MS2 coat protein (input ligand: FMN 200 uM): 3.2 µM
- apparent KD of MS2 coat protein (input ligand: none): 0.198 µM

Sequence: GGAGUUAGAGAGGAUAUGGAGGAGAGGCCAAUUCCAGAAGGUUCAACAUGAGGAUCACCCAUGUAUUUUCCUCA [AK-MS2ROC-r4-exclusion6-2] (Eterna round: R97, puzzle: Exclusion 6)
- apparent KD of MS2 coat protein (input ligand: FMN 200 uM): 0.0256 µM
- apparent KD of MS2 coat protein (input ligand: none): 0.0338 µM

Sequence: GGAUUUACUGAGGAUAUUGCAUCACCCGACUGAUAAGAAGGCAGAACAUGAGGAUCACCCAUGUGGGUACUCAA [Bingo-Bango-5] (Eterna round: R97, puzzle: Exclusion 6)
- apparent KD of MS2 coat protein (input ligand: FMN 200 uM): 0.095 µM
- apparent KD of MS2 coat protein (input ligand: none): 0.105 µM

Sequence: GAGUGACAUGAGGAUCACCCAUGUGAGGAUAUCGGACGGACCUUGUUGGCUUCCGCCGCGAGAAGGCACCUCGG [Exclusion 1 V27] (puzzle: Exclusion 1)
- apparent KD of MS2 coat protein [1]: 0.0325 µM

Sequence: GGAUCGAAUGUGAGGAUAUGCUGGUCCUUGGAUCAGCAGAAGGCACAUGAGGAUCACCCAUGUGAUACCGAUCC [Eli bmx4 4.70] (Eterna round: R97, puzzle: Brourd's mod of Exclusion 4)
- apparent KD of MS2 coat protein (input ligand: FMN 200 uM): 0.255 µM
- apparent KD of MS2 coat protein (input ligand: none): 0.381 µM

Sequence: GGAACGACAGGAUAUACAUGAGGAUCACCCAUGUGAGGAAGAGUAAAGUGUGAAGGAGGUAGAAGGGUCAAGAA [AK-MS2ROC-r4-exclusion3-3] (Eterna round: R97, puzzle: Exclusion 3)
- apparent KD of MS2 coat protein (input ligand: FMN 200 uM): 0.0636 µM
- apparent KD of MS2 coat protein (input ligand: none): 0.0388 µM

Sequence: UAUUAGCAAGUAAGGUCCCACAUGAGGAUCACCCAUGUGCUCGUCUUAUAAGGUACUGUGACGAAAGUCACGGUACC [Sensor 3, v1 - 95] (puzzle: Sensor v3, turn-off variant 1)
- apparent KD of MS2 coat protein [2]: 0.0184 µM
- apparent KD of MS2 coat protein [1]: 0.585 µM
- apparent KD of MS2 coat protein [3]: 0.0181 µM

Sequence: UUUGUUUAUGUAGGAUAUGCCUGGCGUGCCUUUGCAGAAGGACAUGAGGAUCACCCAUGUAACAUGAGGCUCACCCAUGUCGCC [salish99_ExNG1_r04_113] (Eterna round: R96, puzzle: Exclusion NG 1)
- apparent KD of MS2 coat protein (input ligand: FMN 200 uM): 0.134 µM
- apparent KD of MS2 coat protein [4]: 0.0916 µM
- apparent KD of MS2 coat protein (input ligand: none): 0.165 µM

Sequence: GCUGGUCGAGGAUAUACAAUCGUGCUUCGGCACGUAAGGUCACAUGAGGAUCACCCAUGUAGAAGGUGACCAGC [E2/2-B1] (Eterna round: R97, puzzle: Exclusion 2)
- apparent KD of MS2 coat protein (input ligand: FMN 200 uM): 0.0577 µM
- apparent KD of MS2 coat protein (input ligand: none): 0.0207 µM

Sequence: AGGUGACAUGAGGAUCACCCAUGUAAGGAUAUACGGUUAGUGGAGAGAGGGAAAAGAGGUAGAAGGUACGGAGC [JR_Exclu1_Sub057] (puzzle: Exclusion 1)
- apparent KD of MS2 coat protein [1]: 0.156 µM

Sequence: UUGGUUGUGGUAGGAUAUCCGUUGGAAACUGUUGGAGAAGGACCACAGUCACUGGGUCCUUGUUUGGUGGAGUGGAAGAACCAU [pwkr exNG1 F6.16] (Eterna round: R96, puzzle: Exclusion NG 1)
- apparent KD of MS2 coat protein (input ligand: FMN 200 uM): 0.453 µM
- apparent KD of MS2 coat protein [4]: 0.294 µM
- apparent KD of MS2 coat protein (input ligand: none): 0.329 µM

Sequence: GAAUGAGAGCAGGAUAUCUUAAAAAUGUAUAAAAGAGAAGGGCUCACAUGAGGAUCACCCAUGUGGUCCUAGAU [jl-ex6-4.69 jandersonlee mod] (Eterna round: R97, puzzle: Exclusion 6)
- apparent KD of MS2 coat protein (input ligand: FMN 200 uM): 0.572 µM
- apparent KD of MS2 coat protein (input ligand: none): 0.0405 µM

Sequence: UGUCUCCUCGUCAGGAUAUUUCGUUGUGCAGACUGAAAGAAGGGACAUGAGGAUCACCCAUGUACCUCGUCGGU [Eternabot (L2) Solution 98] (Eterna round: R97, puzzle: Brourd's mod of Exclusion 4)
- apparent KD of MS2 coat protein (input ligand: FMN 200 uM): 0.0223 µM
- apparent KD of MS2 coat protein (input ligand: none): 0.0169 µM

Sequence: CGCGCGCGUGUAGGAUAUGUGUUUGGUUCGGGCGCAGAAGGACAUGAGGAUCACCCAUGUGUGUGUGUGCGCGCAGUGUGUGCG [-30, -27 kcal, 15% A] (Eterna round: R96, puzzle: Exclusion NG 1)
- apparent KD of MS2 coat protein (input ligand: FMN 200 uM): 0.055 µM
- apparent KD of MS2 coat protein [4]: 0.0327 µM
- apparent KD of MS2 coat protein (input ligand: none): 0.0417 µM

Sequence: AUAAUACAUGUAGGAUAUGCGUGGCGAAGCUAUGCAGAAGGACAUGAGGAUCACCCAUGUCUUAGCGUCUGCGUACAGAUGCUA [JL eng1 1.35 mod 2] (Eterna round: R96, puzzle: Exclusion NG 1)
- apparent KD of MS2 coat protein (input ligand: FMN 200 uM): 0.0279 µM
- apparent KD of MS2 coat protein [4]: 0.0121 µM
- apparent KD of MS2 coat protein (input ligand: none): 0.0164 µM

Sequence: CCAAGCUUGUUCAUUAACCACAUGAGGAUCACCCAUGUCUUGGCAAUUAUGACCUGCCCGUCAGGUGCUCGUCUUAU [Sensor-V1 #36] (Eterna round: R97, puzzle: Sensor, turn-off variant 1)
- apparent KD of MS2 coat protein (input ligand: FMN 200 uM): 0.045 µM
- apparent KD of MS2 coat protein (input ligand: none): 0.0481 µM

Sequence: CUAACAUGCUGGUGAUCAUACAUGAGGAUCACCCAUGUAACAAGCUUUUUGCUCGUCUUAUAAGAUUACUAGUAUGU [Stov1/10-A4] (Eterna round: R97, puzzle: Sensor, turn-off variant 1)
- apparent KD of MS2 coat protein (input ligand: FMN 200 uM): 0.0214 µM
- apparent KD of MS2 coat protein (input ligand: none): 0.0219 µM

Sequence: CUGCUCCGUGUAGGAUAUCCGCGCAACCAACGCGGAGAAGGACAUGAGGAUCACCCAUGUAUGUUAUUAUCACGUGAAGCGUCC [Design 29] (Eterna round: R96, puzzle: Exclusion NG 1)
- apparent KD of MS2 coat protein (input ligand: FMN 200 uM): 0.0325 µM
- apparent KD of MS2 coat protein [4]: 0.0155 µM
- apparent KD of MS2 coat protein (input ligand: none): 0.0281 µM

Sequence: UAACAAAUGGUCAGGAUAUCAUUCCCGGCCCAGAGUGAGAAGGGACAUGAGGAUCACCCAUGUGUGAUUCUCAU [jl-ex4-4.55 ViennaUCT mod] (Eterna round: R97, puzzle: Brourd's mod of Exclusion 4)
- apparent KD of MS2 coat protein (input ligand: FMN 200 uM): 0.128 µM
- apparent KD of MS2 coat protein (input ligand: none): 0.0971 µM

Sequence: CGUAUCUUUCACGUGAGUAGUGGGUGCAACAGGUGGGUUACAUGAGGAUCACCCAUGUACUCACUUGCUCGUCUUAU [Grok-var2-06] (puzzle: Sensor v3, turn-off variant 2)
- apparent KD of MS2 coat protein [2]: 0.038 µM
- apparent KD of MS2 coat protein [1]: 0.0234 µM
- apparent KD of MS2 coat protein [3]: 0.0343 µM

Sequence: UUUGUAUAGGUAGGAUAUACUUUCAAUUUUUUUUUCCUUACAUGAGGAUCACCCAUGUUUACAUUGUAGAAGGACCUCAUUGUU [JR_ExcNG2_Sub049] (Eterna round: R96, puzzle: Exclusion NG 2)
- apparent KD of MS2 coat protein [4]: 0.325 µM

Sequence: CGUCCACAUGAGGAUCACCCAUGUUAGGAUAUAAACGCCGUAGUCCAAGGACGGGCCUUUAGAAGGAGCGCGGG [Onaredgeso] (puzzle: Exclusion 1)
- apparent KD of MS2 coat protein [1]: 0.0123 µM

From the supplement of paper PMC9170038
